{
  "source": "patent US20210172932A1",
  "key": {"[1]": {"target": "human FcRn (FCGRT and beta2-microglobulin) on MDCK-hFcRn cells, clone 305-6 (human) (UniProt P55899)", "experiment": "flow cytometry on MDCK-hFcRn cells"}, "[2]": {"target": "human FcRn (immobilized on nickel-nitrilotriacetic acid-coated biosensors) (human) (UniProt P55899)", "experiment": "FcRn binding at pH 6.0 (BLI)"}, "[3]": {"target": "human FcRn (FCGRT and beta2-microglobulin) on MDCK-hFcRn cells, clone 305-6 (human) (UniProt P55899)", "experiment": "cell-based or functional assay"}, "[4]": {"target": "human FcRn (immobilized on nickel-nitrilotriacetic acid-coated biosensors) (human) (UniProt P55899)", "experiment": "BLI (Octet RED), FcRn on Ni-NTA biosensor, pH 6.0"}, "[5]": {"target": "human FcRn (FCGRT and beta2-microglobulin) on MDCK-hFcRn cells, clone 305-6 (human) (UniProt P55899)", "experiment": "flow cytometry, 100 µg/mL on MDCK-hFcRn cells, physiological pH, geometric MFI (No mAb: 94)"}, "[6]": {"target": "human FcRn (immobilized on nickel-nitrilotriacetic acid-coated biosensors) (human) (UniProt P55899)", "experiment": "BLI, pH 6.0; range of the panel, lower end tied to Nivolumab by Table 1"}},
  "data": [
    {"substance": "2H7-DG (antibody)", "values": [
      {"measurement": "Binding to MDCK-hFcRN, MFI", "setting": "[1]", "value": 160, "unit": "MFI"},
      {"measurement": "Kd", "setting": "[2]", "value": 440, "unit": "nM"},
      {"measurement": "Transcytosis (MDCK-hFcRN)", "setting": "[3]", "value": 4.3, "unit": "ng/mL"}
    ]},
    {"substance": "2H7-Man5 (antibody)", "values": [
      {"measurement": "Binding to MDCK-hFcRN, MFI", "setting": "[1]", "value": 207, "unit": "MFI"},
      {"measurement": "Kd", "setting": "[2]", "value": 230, "unit": "nM"},
      {"measurement": "Transcytosis (MDCK-hFcRN)", "setting": "[3]", "value": 10.3, "unit": "ng/mL"}
    ]},
    {"substance": "Adalimumab (antibody)", "values": [
      {"measurement": "Kd", "setting": "[4]", "value": 1180, "unit": "nM"},
      {"measurement": "Transcytosis", "setting": "[3]", "value": 4.7, "unit": "ng/mL"},
      {"measurement": "Transcytosis in MDCK-hFcRn cells", "setting": "[3]", "value": 4.7, "unit": "ng/mL"},
      {"measurement": "Binding to MDCK-FcRn cells, MFI", "setting": "[5]", "value": 183, "unit": "MFI"}
    ]},
    {"substance": "Alirocumab (antibody)", "values": [
      {"measurement": "Transcytosis", "setting": "[3]", "value": 9.9, "unit": "ng/mL"}
    ]},
    {"substance": "Atezolizumab (antibody)", "values": [
      {"measurement": "Kd", "setting": "[4]", "value": 650, "unit": "nM"},
      {"measurement": "Transcytosis", "setting": "[3]", "value": 3, "unit": "ng/mL"}
    ]},
    {"substance": "Avelumab (antibody)", "values": [
      {"measurement": "Kd", "setting": "[4]", "value": 1300, "unit": "nM"},
      {"measurement": "Transcytosis", "setting": "[3]", "value": 7.3, "unit": "ng/mL"}
    ]},
    {"substance": "Basiliximab (antibody)", "values": [
      {"measurement": "Kd", "setting": "[4]", "value": 540, "unit": "nM"},
      {"measurement": "Transcytosis", "setting": "[3]", "value": 14.9, "unit": "ng/mL"},
      {"measurement": "Transcytosis in MDCK-hFcRn cells", "setting": "[3]", "value": 14.8, "unit": "ng/mL"},
      {"measurement": "Binding to MDCK-FcRn cells, MFI", "setting": "[5]", "value": 203, "unit": "MFI"}
    ]},
    {"substance": "Durvalumab (antibody)", "values": [
      {"measurement": "Kd", "setting": "[4]", "value": 700, "unit": "nM"},
      {"measurement": "Transcytosis", "setting": "[3]", "value": 6, "unit": "ng/mL"}
    ]},
    {"substance": "Efalizumab (antibody)", "values": [
      {"measurement": "Transcytosis", "setting": "[3]", "value": 8.3, "unit": "ng/mL"}
    ]},
    {"substance": "Emicizumab (bispecific antibody)", "values": [
      {"measurement": "Transcytosis", "setting": "[3]", "value": 3.6, "unit": "ng/mL"}
    ]},
    {"substance": "Evolocumab (antibody)", "values": [
      {"measurement": "Transcytosis", "setting": "[3]", "value": 3.6, "unit": "ng/mL"}
    ]},
    {"substance": "Golimumab (antibody)", "values": [
      {"measurement": "Transcytosis", "setting": "[3]", "value": 6.8, "unit": "ng/mL"}
    ]},
    {"substance": "Ixekizumab (antibody)", "values": [
      {"measurement": "Transcytosis", "setting": "[3]", "value": 5.1, "unit": "ng/mL"}
    ]},
    {"substance": "Natalizumab (antibody)", "values": [
      {"measurement": "Kd", "setting": "[4]", "value": 280, "unit": "nM"},
      {"measurement": "Transcytosis", "setting": "[3]", "value": 4.9, "unit": "ng/mL"}
    ]},
    {"substance": "Nivolumab (antibody)", "values": [
      {"measurement": "Kd", "setting": "[4]", "value": 250, "unit": "nM"},
      {"measurement": "Transcytosis", "setting": "[3]", "value": 4.3, "unit": "ng/mL"},
      {"measurement": "Kd", "setting": "[6]", "value": 250, "unit": "nM"}
    ]},
    {"substance": "Obinutuzumab (antibody)", "values": [
      {"measurement": "Transcytosis", "setting": "[3]", "value": 4.5, "unit": "ng/mL"}
    ]},
    {"substance": "Ocrelizumab (antibody)", "values": [
      {"measurement": "Kd", "setting": "[4]", "value": 450, "unit": "nM"},
      {"measurement": "Binding to MDCK-hFcRN, MFI", "setting": "[1]", "value": 140, "unit": "MFI"},
      {"measurement": "Kd", "setting": "[2]", "value": 450, "unit": "nM"},
      {"measurement": "Transcytosis", "setting": "[3]", "value": 4.8, "unit": "ng/mL"},
      {"measurement": "Transcytosis (MDCK-hFcRN)", "setting": "[3]", "value": 4.8, "unit": "ng/mL"},
      {"measurement": "Transcytosis in MDCK-hFcRn cells", "setting": "[3]", "value": 4.8, "unit": "ng/mL"},
      {"measurement": "Binding to MDCK-FcRn cells, MFI", "setting": "[5]", "value": 101, "unit": "MFI"}
    ]},
    {"substance": "Ofatumumab (antibody)", "values": [
      {"measurement": "Transcytosis", "setting": "[3]", "value": 4.3, "unit": "ng/mL"}
    ]},
    {"substance": "Olaratumab (antibody)", "values": [
      {"measurement": "Kd", "setting": "[4]", "value": 380, "unit": "nM"},
      {"measurement": "Transcytosis", "setting": "[3]", "value": 8.2, "unit": "ng/mL"}
    ]},
    {"substance": "Palivizumab (antibody)", "values": [
      {"measurement": "Kd", "setting": "[4]", "value": 480, "unit": "nM"},
      {"measurement": "Transcytosis", "setting": "[3]", "value": 3.8, "unit": "ng/mL"}
    ]},
    {"substance": "Panitumumab (antibody)", "values": [
      {"measurement": "Kd", "setting": "[4]", "value": 780, "unit": "nM"},
      {"measurement": "Transcytosis", "setting": "[3]", "value": 5, "unit": "ng/mL"}
    ]},
    {"substance": "Pembrolizumab (antibody)", "values": [
      {"measurement": "Transcytosis", "setting": "[3]", "value": 4.2, "unit": "ng/mL"}
    ]},
    {"substance": "Pertuzumab (antibody)", "values": [
      {"measurement": "Kd", "setting": "[4]", "value": 570, "unit": "nM"},
      {"measurement": "Transcytosis", "setting": "[3]", "value": 6.8, "unit": "ng/mL"},
      {"measurement": "Transcytosis in MDCK-hFcRn cells", "setting": "[3]", "value": 6.8, "unit": "ng/mL"}
    ]},
    {"substance": "Reslizumab (antibody)", "values": [
      {"measurement": "Kd", "setting": "[4]", "value": 450, "unit": "nM"},
      {"measurement": "Transcytosis", "setting": "[3]", "value": 3.3, "unit": "ng/mL"},
      {"measurement": "Transcytosis in MDCK-hFcRn cells", "setting": "[3]", "value": 3.3, "unit": "ng/mL"},
      {"measurement": "Binding to MDCK-FcRn cells, MFI", "setting": "[5]", "value": 93, "unit": "MFI"}
    ]},
    {"substance": "Rituximab (antibody)", "values": [
      {"measurement": "Kd", "setting": "[4]", "value": 460, "unit": "nM"},
      {"measurement": "Transcytosis", "setting": "[3]", "value": 5.6, "unit": "ng/mL"}
    ]},
    {"substance": "Tocilizumab (antibody)", "values": [
      {"measurement": "Transcytosis", "setting": "[3]", "value": 5.5, "unit": "ng/mL"}
    ]},
    {"substance": "Vedolizumab (antibody)", "values": [
      {"measurement": "Transcytosis", "setting": "[3]", "value": 4.1, "unit": "ng/mL"}
    ]}
  ]
}
